Measured values reported in patent US20220251236A1 (Boehringer Ingelheim, published 2022).

T1: Human DLL3-His (human, UniProt Q9NYJ7 27-492)
T1 construct: also called huDLL3-His; hu DLL3
T1 sequence: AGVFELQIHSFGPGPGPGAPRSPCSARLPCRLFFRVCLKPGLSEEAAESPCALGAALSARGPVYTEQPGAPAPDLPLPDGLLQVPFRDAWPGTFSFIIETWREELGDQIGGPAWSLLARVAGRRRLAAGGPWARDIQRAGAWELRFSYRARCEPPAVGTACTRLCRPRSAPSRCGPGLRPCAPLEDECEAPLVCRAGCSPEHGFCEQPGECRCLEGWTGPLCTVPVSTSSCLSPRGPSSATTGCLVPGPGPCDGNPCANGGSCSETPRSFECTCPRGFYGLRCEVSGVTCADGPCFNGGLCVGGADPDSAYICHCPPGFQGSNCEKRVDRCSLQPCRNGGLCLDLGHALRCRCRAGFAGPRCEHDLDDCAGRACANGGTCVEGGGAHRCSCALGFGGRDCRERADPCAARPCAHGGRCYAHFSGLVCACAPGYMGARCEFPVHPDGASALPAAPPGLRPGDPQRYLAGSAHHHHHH

T2: EGF2+3
T2 construct: also called Hu DLL3 EGF2+3 on HEK293 cells
T2 membrane-anchored DLL3 subdomain construct: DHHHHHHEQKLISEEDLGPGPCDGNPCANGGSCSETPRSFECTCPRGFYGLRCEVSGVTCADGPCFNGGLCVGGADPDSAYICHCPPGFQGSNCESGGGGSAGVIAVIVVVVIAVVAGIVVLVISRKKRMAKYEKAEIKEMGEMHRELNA

T3: EGF3+4
T3 construct: also called Hu DLL3 EGF3+4 on HEK293 cells
T3 membrane-anchored DLL3 subdomain construct: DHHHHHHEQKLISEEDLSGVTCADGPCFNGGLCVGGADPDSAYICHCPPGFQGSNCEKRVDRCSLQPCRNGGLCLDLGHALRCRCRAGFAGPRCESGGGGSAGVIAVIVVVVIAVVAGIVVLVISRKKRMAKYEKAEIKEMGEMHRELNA

T4: EGF4+5
T4 construct: also called Hu DLL3 EGF4+5 on HEK293 cells
T4 membrane-anchored DLL3 subdomain construct: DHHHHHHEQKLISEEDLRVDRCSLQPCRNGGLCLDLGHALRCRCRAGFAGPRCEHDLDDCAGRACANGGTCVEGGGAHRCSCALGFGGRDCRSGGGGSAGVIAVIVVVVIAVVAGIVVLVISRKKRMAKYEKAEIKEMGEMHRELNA

T5: EGF5+6
T5 construct: also called Hu DLL3 EGF5+6 on HEK293 cells
T5 membrane-anchored DLL3 subdomain construct: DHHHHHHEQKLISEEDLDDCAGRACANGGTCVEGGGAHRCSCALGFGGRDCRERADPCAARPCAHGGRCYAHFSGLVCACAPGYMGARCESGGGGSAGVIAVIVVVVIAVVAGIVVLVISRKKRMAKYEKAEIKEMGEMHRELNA

T6: EGF6+MEMBRANE PROXIMAL PEPTIDE
T6 construct: also called Hu DLL3 EGF6+membrane proximal peptide on HEK293 cells
T6 membrane-anchored DLL3 subdomain construct: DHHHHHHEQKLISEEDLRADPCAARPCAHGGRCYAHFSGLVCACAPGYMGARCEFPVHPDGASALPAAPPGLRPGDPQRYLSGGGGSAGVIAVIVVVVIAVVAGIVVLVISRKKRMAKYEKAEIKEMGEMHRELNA

T7: EGF1+2
T7 construct: also called Hu DLL3 EGF1+2 on HEK293 cells
T7 membrane-anchored DLL3 subdomain construct: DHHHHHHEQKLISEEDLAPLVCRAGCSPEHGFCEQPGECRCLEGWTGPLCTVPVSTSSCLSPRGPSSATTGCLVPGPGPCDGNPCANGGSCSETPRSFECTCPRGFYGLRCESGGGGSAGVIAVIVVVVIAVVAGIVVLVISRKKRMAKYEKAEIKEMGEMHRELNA


Key:
[1] = molecular target: T8, trypsin inhibitor from glycine max soybean (Glycine max (soybean)); experiment: SPR (Biacore T200), trypsin inhibitor on CM5 chip, sample at 1 µM
T8 construct: also called Tryp
T8 sequence (P01070 25-205): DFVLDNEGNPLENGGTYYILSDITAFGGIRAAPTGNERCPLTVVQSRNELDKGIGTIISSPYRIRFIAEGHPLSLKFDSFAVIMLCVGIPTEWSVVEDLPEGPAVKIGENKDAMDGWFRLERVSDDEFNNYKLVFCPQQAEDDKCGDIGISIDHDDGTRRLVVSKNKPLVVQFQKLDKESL
Description: To prepare the surface for the non-specific binding experiment, chicken egg white lysozyme and trypsin inhibitor from glycine max soybean were coupled manually to a series S CM5 chip with the surface density of 3000-5000 RU using the amine coupling kit according to the manufacture instructions.

Human DLL3-His = molecular target: T1, Human DLL3-His; experiment: SPR (ProteOn XPR36), bispecific captured on protein A/G, hu DLL3 as analyte, Example 4B
Experimental: (§1) The binding affinity of purified DLL3/CD3 bispecific constructs for recombinant human DLL3-ECD and Fc-fusion protein of human CD3 εγ subunits was determined by Surface Plasmon Resonance (SPR), using a ProteOn XPR36 instrument (Bio-Rad).
For binding kinetic determination to DLL3, anti-DLL3/CD3 molecules were captured individually on the protein A/G surface vertically for 200 sec at a flowrate of 30 μl/min. The baseline was stabilized by injecting PBS-T-EDTA for 60 sec at a flowrate of 30 μl/min horizontally. The analyte (hu DLL3) was injected horizontally over the captured antibody for 300 sec at a flowrate of 30 μl/min and a dissociation for 1800 sec.

EGF2+3 = molecular target: T2, EGF2+3; experiment: flow cytometry on HEK293 cells expressing the DLL3 subdomain construct, PE anti-human secondary, control: secondary antibody only
Method in brief: (§2)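 Binders tested on HEK293 cells displaying the DLL3 subdomain construct; bound molecules detected by flow cytometry using PE-conjugated anti-human secondary antibody. Negative control: cells with secondary antibody only.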

EGF3+4 = molecular target: T3, EGF3+4; experiment: as above
Method in brief: as §2

EGF4+5 = molecular target: T4, EGF4+5; experiment: as above
Method in brief: as §2

EGF5+6 = molecular target: T5, EGF5+6; experiment: as above
Method in brief: as §2

[2] = molecular target: T6, EGF6+MEMBRANE PROXIMAL PEPTIDE; experiment: as above
Method in brief: as §2

EGF1+2 = molecular target: T7, EGF1+2; experiment: flow cytometry on HEK293 cells expressing the DLL3 subdomain construct, 1.6 nM binder, PE anti-human secondary, control: secondary antibody only
Experimental: DLL3/CD3 binding proteins were produced by transient transfection of CHO-E cells with the pTT5 vectors carrying the chain-encoding genes, as described in Example 2. […] Bound molecules were detected with PE-conjugated anti-human secondary antibody (Sigma-Aldrich, #P8047). As negative control, cells were incubated with secondary antibody only.
The samples were measured by flow-cytometry. […] The sequences of the epitope domains are listed in Example 5, Table 3.

Human CD3 E+G HuFc-6xHis = molecular target: T9, Human CD3 E+G HuFc-6xHis (human); experiment: SPR (ProteOn XPR36), HuCD3E_HuCD3G-Fc amine-coupled, bispecific as analyte, Example 4B
T9 construct: also called hu CD3εγ-Fc
T9 sequence (chain, as listed by the source limits assumed): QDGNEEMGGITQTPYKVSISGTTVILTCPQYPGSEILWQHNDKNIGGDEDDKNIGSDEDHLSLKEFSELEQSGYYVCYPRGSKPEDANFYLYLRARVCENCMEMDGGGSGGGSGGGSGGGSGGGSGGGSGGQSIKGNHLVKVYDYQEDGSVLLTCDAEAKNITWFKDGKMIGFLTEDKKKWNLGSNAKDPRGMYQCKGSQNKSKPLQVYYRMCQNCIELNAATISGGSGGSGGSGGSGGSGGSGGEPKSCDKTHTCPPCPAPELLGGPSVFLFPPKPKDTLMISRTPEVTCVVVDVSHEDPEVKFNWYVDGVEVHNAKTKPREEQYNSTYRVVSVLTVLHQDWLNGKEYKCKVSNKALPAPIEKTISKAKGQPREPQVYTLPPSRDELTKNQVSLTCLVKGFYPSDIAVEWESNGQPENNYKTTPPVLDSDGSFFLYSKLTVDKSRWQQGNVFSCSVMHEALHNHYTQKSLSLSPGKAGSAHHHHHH
Experimental: as §1
For binding kinetic determination to CD3, HuCD3E_HuCD3G-Fc (dissolved in pH 4.5 acetate) was immobilized directly onto the sensor surface through amine coupling for 360 sec at a flowrate of 30 μl/min vertically. The baseline was stabilized by injecting PBS-T-EDTA for 60 sec at a flowrate of 30 μl/min horizontally. The analytes (all anti-DLL3/CD3 molecules) were injected horizontally over the captured antibody for 600 sec at a flowrate of 30 μl/min and a dissociation for 1800 sec.

Binder | Non-specific binding (RU) [1] [RU] | Kd (Human DLL3-His) [nM] | binding result (EGF2+3) | binding result (EGF3+4) | binding result (EGF4+5) | binding result (EGF5+6) | binding result [2] | binding result (EGF1+2) | Kd (Human CD3 E+G HuFc-6xHis) [nM]
DLL3#10/CD3#1 (bispecific antibody, human IgG1, kappa, lambda, L234A L235A, Heterodimer of one DLL3 chain and one CD3 chain (scFab-Fc, knob-in-hole)) chain 1: EIVLTQSPGTLSLSPGERATLSCRASQSLNSIFLAWYQQKPGQAPWLLIYGASSRATGIPDRFSGSGSGTDFTLTISRLEPEDFAVYFCQQYGGSMNTFGQGTKLEIKRTVAAPSVFIFPPSDEQLKSGTASVVCLLNNFYPREAKVQWKVDNALQSGNSQESVTEQDSKDSTYSLSSTLTLSKADYEKHKVYACEVTHQGLSSPVTKSFNRGECGGGGSEGKSSGSGSESKSTEGKSSGSGSESKSTGGGGSQVQLVQSGAEVKKPGASVKVSCKASGYTFTGYYMHWVRLAPGQGLEWMGWINPNSGGTIFAQRFQGRVTMTRDTSISTVYMDLNRLRSDDTAVYYCARDFGDTVGNAFDIWGQGTMVTVSSASTKGPSVFPLAPSSKSTSGGTAALGCLVKDYFPEPVTVSWNSGALTSGVHTFPAVLQSSGLYSLSSVVTVPSSSLGTQTYICNVNHKPSNTKVDKRVEPKSCDKTHTCPPCPAPEAAGGPSVFLFPPKPKDTLMISRTPEVTCVVVDVSHEDPEVKFNWYVDGVEVHNAKTKPREEQYNSTYRVVSVLTVLHQDWLNGKEYKCKVSNKALPAPIEKTISKAKGQPREPQVYTLPPSREEMTKNQVSLWCLVKGFYPSDIAVEWESNGQPENNYKTTPPVLDSDGSFFLYSKLTVDKSRWQQGNVFSCSVMHEALHNHYTQKSLSLSPG chain 2: EAVVTQEPSLTVSPGGTVTLTCRSSTGAVTTSNYANWVQEKPGQLPRGLIGGTNKRAPWVPARFSGSLLGGKAALTLSGAQPEDEAEYFCALWYSNLWVFGGGTKLTVLGQPKAAPSVTLFPPSSEELQANKATLVCLISDFYPGAVKVAWKADGSPVNTGVETTTPSKQSNNKYAASSYLSLTPEQWKSHRSYSCQVTHEGSTVEKTVAPAECSGGGGSEGKSSGSGSESKSTEGKSSGSGSESKSTGGGGSEVQLVESGGGLVQPGGSLKLSCAASGFTFNTYAMNWVRQAPGKGLEWVARIRSKYNNYATYYADSVKDRFTISRDDSKNTAYLQMNNLKTEDTAVYYCVRHGNFGNSYVSWFAYWGQGTLVTVSAASTKGPSVFPLAPSSKSTSGGTAALGCLVKDYFPEPVTVSWNSGALTSGVHTFPAVLQSSGLYSLSSVVTVPSSSLGTQTYICNVNHKPSNTKVDKRVEPKSCDKTHTCPPCPAPEAAGGPSVFLFPPKPKDTLMISRTPEVTCVVVDVSHEDPEVKFNWYVDGVEVHNAKTKPREEQYNSTYRVVSVLTVLHQDWLNGKEYKCKVSNKALPAPIEKTISKAKGQPREPQVYTLPPSREEMTKNQVSLSCAVKGFYPSDIAVEWESNGQPENNYKTTPPVLDSDGSFFLVSKLTVDKSRWQQGNVFSCSVMHEALHNRFTQKSLSLSPG | 12 | 0.141 | no binding (tested: 1.6 nM) | no binding (tested: 1.6 nM) | no binding (tested: 1.6 nM) | no binding (tested: 1.6 nM) | no binding (tested: 1.6 nM) | binds | –
DLL3#12/CD3#1 (bispecific antibody, human IgG1, kappa, lambda, L234A L235A, Heterodimer of one DLL3 chain and one CD3 chain (scFab-Fc, knob-in-hole)) chain 1: QVVLTQSPAIMSASPGEKVTITCSASSSVTYIHWFQQNPGTSPKLWIYRTSYLASGVPARFSGSGSGTSYSLTISRMEAEDAATYYCQQRSSYPRTFGGGTKLEIKRTVAAPSVFIFPPSDEQLKSGTASVVCLLNNFYPREAKVQWKVDNALQSGNSQESVTEQDSKDSTYSLSSTLTLSKADYEKHKVYACEVTHQGLSSPVTKSFNRGECGGGGSEGKSSGSGSESKSTEGKSSGSGSESKSTGGGGSQVQLQQPGAEFVQPGSSVKMSCKASGYAFSDYWITWVKQRPGQGLEWIGDIYPGSGSTKSSEKFKNRATLTADTSSSTAYIQFSSLTPEDSAVYYCVSLYYYGSYYLDTWGQGTTLTVSSASTKGPSVFPLAPSSKSTSGGTAALGCLVKDYFPEPVTVSWNSGALTSGVHTFPAVLQSSGLYSLSSVVTVPSSSLGTQTYICNVNHKPSNTKVDKRVEPKSCDKTHTCPPCPAPEAAGGPSVFLFPPKPKDTLMISRTPEVTCVVVDVSHEDPEVKFNWYVDGVEVHNAKTKPREEQYNSTYRVVSVLTVLHQDWLNGKEYKCKVSNKALPAPIEKTISKAKGQPREPQVYTLPPSREEMTKNQVSLWCLVKGFYPSDIAVEWESNGQPENNYKTTPPVLDSDGSFFLYSKLTVDKSRWQQGNVFSCSVMHEALHNHYTQKSLSLSPG chain 2: EAVVTQEPSLTVSPGGTVTLTCRSSTGAVTTSNYANWVQEKPGQLPRGLIGGTNKRAPWVPARFSGSLLGGKAALTLSGAQPEDEAEYFCALWYSNLWVFGGGTKLTVLGQPKAAPSVTLFPPSSEELQANKATLVCLISDFYPGAVKVAWKADGSPVNTGVETTTPSKQSNNKYAASSYLSLTPEQWKSHRSYSCQVTHEGSTVEKTVAPAECSGGGGSEGKSSGSGSESKSTEGKSSGSGSESKSTGGGGSEVQLVESGGGLVQPGGSLKLSCAASGFTFNTYAMNWVRQAPGKGLEWVARIRSKYNNYATYYADSVKDRFTISRDDSKNTAYLQMNNLKTEDTAVYYCVRHGNFGNSYVSWFAYWGQGTLVTVSAASTKGPSVFPLAPSSKSTSGGTAALGCLVKDYFPEPVTVSWNSGALTSGVHTFPAVLQSSGLYSLSSVVTVPSSSLGTQTYICNVNHKPSNTKVDKRVEPKSCDKTHTCPPCPAPEAAGGPSVFLFPPKPKDTLMISRTPEVTCVVVDVSHEDPEVKFNWYVDGVEVHNAKTKPREEQYNSTYRVVSVLTVLHQDWLNGKEYKCKVSNKALPAPIEKTISKAKGQPREPQVYTLPPSREEMTKNQVSLSCAVKGFYPSDIAVEWESNGQPENNYKTTPPVLDSDGSFFLVSKLTVDKSRWQQGNVFSCSVMHEALHNRFTQKSLSLSPG | 9 | < 0.02 | no binding (tested: 1.6 nM) | no binding (tested: 1.6 nM) | no binding (tested: 1.6 nM) | no binding (tested: 1.6 nM) | no binding (tested: 1.6 nM) | binds | 2
